Source: patent US8834890B2, “Siderophore conjugate immunogenic compositions and vaccines” (University of Florida Research Foundation, Inc., priority 2009, dated 2014)

B1: OVA: unconjugated ovalbumin, control in the competitive binding ELISA (protein, UniProt P01012 2-386, looked up)
Ovalbumin: GSIGAASMEFCFDVFKELKVHHANENIFYCPIAIMSALAMVYLGAKDSTRTQINKVVRFDKLPGFGDSIEAQCGTSVNVHSSLRDILNQITKPNDVYSFSLASRLYAEERYPILPEYLQCVKELYRGGLEPINFQTAADQARELINSWVESQTNGIIRNVLQPSSVDSQTAMVLVNAIVFKGLWEKAFKDEDTQAMPFRVTEQESKPVQMMYQIGLFRVASMASEKMKILELPFASGTMSMLVLLPDEVSGLEQLESIINFEKLTEWTSSNVMEERKIKVYLPRMKMEEKYNLTSVLMAMGITDVFSSSANLSGISSAESLKISQAVHAAHAEINEAGREVVGSAEAGVDAASVSEEFRADHPFLFCIKHIATNAVLFFGRCVSP

What was measured:
[1] = Iron clearance in non-iron-overloaded, bile-duct cannulated rats; type: in vivo, Sprague-Dawley rats; conditions: 75 μmol/kg s.c.
Description: To support this idea, bile duct-cannulated rats were given vibriobactin (3) subcutaneously (s.c.) at a dose of 75 μmol/kg. The rodents' bile and urine were collected for 48 h to determine if vibriobactin sequestered and promoted the excretion of iron. The iron content of the bile and urine were determined using atomic absorption spectroscopy. This model has been used for many years to evaluate the efficiency with which iron chelators promote the excretion of iron from animals [Bergeron, R. J.; Streiff, R. R.; Creary, E. A.; Daniels, R. D., Jr.; King, W.; Luchetta, G.; Wiegand, J.; Moerker, T.; Peter, H. H. A Comparative Study of the Iron-Clearing Properties of Desferrithiocin Analogues with Desferrioxamine B in a Cebus Monkey Model. Blood 1993, 81, 2166-2173 and Bergeron, R. J.; Streiff, R. R.; Wiegand, J.; Vinson, J. R. T.; Luchetta, G.; Evans, K. M.; Peter, H.; Jenny, H.-B. A Comparative Evaluation of Iron Clearance Models. […]
Four rats were subjected to bile duct-cannulation as previously described. […] The iron content of the bile and urine were assessed by atomic absorption spectroscopy. Iron clearing efficiency was calculated as set forth elsewhere [Bergeron, R. J.; Wiegand, J.; McManis, J. S.; McCosar, B. H.; Weimar, W. R.; Brittenham, G. M.; Smith, R. E. Effects of C-4 Stereochemistry and C-4′ Hydroxylation on the Iron Clearing Efficiency and Toxicity of Desferrithiocin Analogues. […]

BSA-VIB antigen [2] = experiment: Competitive binding ELISA of polyclonal serum from immunized mice
Description: In the competitive binding ELISA, sera from immunized mice or non-immunized mice were first incubated with potential antigens f-g, or with OVA-VIB, at antigen concentrations ranging from 0-250 μg/mL. If an antigen is an effective competitor, it will bind to the antibody during this initial incubation, leaving less antibody available to bind to a second antigen coated on the ELISA plate. This “competition” will be reflected in lower p-nitrophenol optical density values.
Competitive binding ELISAs were performed on 1) serum from immunized mice that contained polyclonal antibodies, and 2) purified mAb derived from the cloning of 5A6-2D5 and 2F10-1A9. Medium was used as a negative control, while unconjugated OVA (10 μg/mL, 50 μL/well) served as a […] for the competitive binding ELISA of the polyclonal serum (Table 2) and purified mAb (Table 6). Two types of plates were utilized: a conical bottom polypropylene plate was used for the incubation of the antibody-antigen mixture, whereas a 96-well MAXISORP plate (a high protein-binding capacity polystyrene multi-well ELISA plate) was used for the ELISA.
In brief, the polypropylene incubation plate was blocked with 300 μL of blocking buffer (1% BSA in PBS with 0.02% azide) and was allowed to incubate overnight at 4° C. The following day, the blocking buffer was removed (flicked) from the plate, and the plate was blotted on a paper towel. A 96-well ELISA plate was coated with the BSA-VIB antigen (10 μg/mL, 50 μL/well) that had been diluted in PBS with 0.02% azide. After incubating overnight at 4° C., the plate was washed 4 times (300 μL/wash) as described above, blocked with 300 μL of blocking buffer for 1 h, and washed again.
The OVA-VIB antigen was diluted in blocking buffer in micro centrifuge tubes at antigen concentrations ranging from 0-250 μg/mL. The diluted antigens (50 μL/well) were transferred from the micro centrifuge tubes to the polypropylene incubation plate that had been blocked and washed. Fifty microliters of the diluted polyclonal mouse serum (1:10,000 dilution) or mAb (0.11 μg protein/mL) were added to the incubation plate wells containing the diluted OVA-VIB antigen. The polypropylene plate was then incubated on a rocking platform for 2 h at room temperature, allowing time for the antigen-antibody complexes to form.
A portion of the antigen/antibody mixture (50 μL) was transferred from the polypropylene incubation plate to the BSA-VIB-coated ELISA plate that had been blocked and washed. The ELISA plate was incubated with gentle agitation for 1 h at room temperature and was washed 4 times with the EWB. […] The ELISA plate was allowed to incubate with gentle agitation for 1 h at room temperature and was read at 405 nm, tracking the OD of the yellow water-soluble product, p-nitrophenol. […]

BSA-VIB antigen [3] = experiment: Competitive binding ELISA of purified monoclonal antibodies
Description: Competitive binding ELISA studies using the purified mAb were conducted. The mAb were first incubated with varying concentrations of the OVA-VIB antigen, from 0-250 μg/mL, prior to being transferred to an ELISA plate that had been coated with the BSA-VIB antigen.
In brief, the polypropylene incubation plate was blocked with 300 μL of blocking buffer (1% BSA in PBS with 0.02% azide) and was allowed to incubate overnight at 4° C. The following day, the blocking buffer was removed (flicked) from the plate, and the plate was blotted on a paper towel. A 96-well ELISA plate was coated with the BSA-VIB antigen (10 μg/mL, 50 μL/well) that had been diluted in PBS with 0.02% azide. After incubating overnight at 4° C., the plate was washed 4 times (300 μL/wash) as described above, blocked with 300 μL of blocking buffer for 1 h, and washed again. […]

[4] = against the BSA-VIB antigen, 10 μg/mL

BSA-VIB antigen, sequence (P02769 25-607): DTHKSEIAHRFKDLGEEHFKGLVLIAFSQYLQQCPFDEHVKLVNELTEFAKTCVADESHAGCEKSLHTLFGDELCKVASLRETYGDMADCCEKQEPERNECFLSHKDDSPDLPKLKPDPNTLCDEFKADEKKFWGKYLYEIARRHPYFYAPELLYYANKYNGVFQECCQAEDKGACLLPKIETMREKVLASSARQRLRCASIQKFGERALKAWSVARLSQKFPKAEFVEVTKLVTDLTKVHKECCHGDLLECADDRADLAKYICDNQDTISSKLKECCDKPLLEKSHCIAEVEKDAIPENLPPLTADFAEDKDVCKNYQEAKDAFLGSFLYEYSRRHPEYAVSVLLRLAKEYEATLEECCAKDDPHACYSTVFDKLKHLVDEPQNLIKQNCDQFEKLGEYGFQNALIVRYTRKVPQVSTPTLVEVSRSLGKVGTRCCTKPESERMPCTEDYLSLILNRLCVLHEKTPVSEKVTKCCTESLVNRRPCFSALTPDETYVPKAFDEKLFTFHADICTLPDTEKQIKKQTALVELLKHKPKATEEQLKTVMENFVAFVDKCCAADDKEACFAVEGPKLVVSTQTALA

Molecule | iron sequestration in vivo (in words) [1] | iron clearing efficiency ([1]; bile and urine collected 48 h) | BSA-VIB Antigen: Optical Density at 405 nm (BSA-VIB antigen [2]; M1 serum 1:10,000 incubated with unconjugated OVA 10 μg/mL) | BSA-VIB Antigen: Optical Density at 405 nm (BSA-VIB antigen [2]; M2 serum 1:10,000 incubated with unconjugated OVA 10 μg/mL) | optical density of serum incubated with OVA greater than serum first incubated with OVA-VIB at the same concentration (BSA-VIB antigen [2]; [4]) | effectiveness as competitor (in words) (BSA-VIB antigen [2]; sera from immunized mice, antigen 0-250 μg/mL) | optical density of mAb incubated with OVA greater than mAb first incubated with OVA-VIB at the same concentration (BSA-VIB antigen [3]; [4]) | effectiveness as competitor (in words) (BSA-VIB antigen [3]; purified mAb, antigen 0-250 μg/mL)
CC1OC(c2cccc(O)c2O)=NC1C(=O)NCCCN(CCCNC(=O)c1cccc(O)c1O)C(=O)C1N=C(c2cccc(O)c2O)OC1C (centres unmarked) [Compound 3, vibriobactin] | found to sequester iron in vivo | 4.3±1.1% |  |  |  |  |  | 
B1 |  |  | 1.152 | 1.655 | 92% | not an effective competitor | approximately 90% | not an effective competitor
